Read-outs that look alike come from different tables or passages of the source.
B1: DB domain of ERα pre-treated with EDTA to strip divalent zinc ions (metal-free DB domain) (domain or fragment, human, UniProt P03372 176-250, looked up)
chain: MESAKETRYCAVCNDYASGYHYGVWSCEGCKAFFKRSIQGHNDYMCPATNQCTIDKNRRKSCQACRLRKCYEVGM
B2: DB domain of ERα reconstituted with divalent ions of cadmium (domain or fragment, human, UniProt P03372 176-250, looked up)
chain: MESAKETRYCAVCNDYASGYHYGVWSCEGCKAFFKRSIQGHNDYMCPATNQCTIDKNRRKSCQACRLRKCYEVGM
B3: DB domain of ERα reconstituted with divalent ions of mercury (domain or fragment, human, UniProt P03372 176-250, looked up)
chain: MESAKETRYCAVCNDYASGYHYGVWSCEGCKAFFKRSIQGHNDYMCPATNQCTIDKNRRKSCQACRLRKCYEVGM
B4: DB domain of ERα reconstituted with divalent ions of zinc (domain or fragment, human, UniProt P03372 176-250, looked up)
chain: MESAKETRYCAVCNDYASGYHYGVWSCEGCKAFFKRSIQGHNDYMCPATNQCTIDKNRRKSCQACRLRKCYEVGM
B5: DB domain of ERα reconstituted with divalent ions of cobalt (domain or fragment, human, UniProt P03372 176-250, looked up)
chain: MESAKETRYCAVCNDYASGYHYGVWSCEGCKAFFKRSIQGHNDYMCPATNQCTIDKNRRKSCQACRLRKCYEVGM
B6: ERE duplex (dsDNA)
DNA 1: CCCAGGTCACAGTGACCTGCG
DNA 2: CGCAGGTCACTGTGACCTGGG

Assays:
SEC-MALS = molecular target: the molecule itself; assay: SEC-MALS
[1] = molecular target: T1, ERα DB domain (DNA-binding domain) (human, UniProt P03372 176-250); assay: ITC
[2] = molecular target: T1, ERα DB domain (DNA-binding domain); assay: ITC; remark: listed apart in the source

| Binder | stoichiometry N (SEC-MALS) | Kd [1] [nM] | Kd [2] [nM] |
| --- | --- | --- | --- |
| B1 | 2 |  |  |
| B2 | 2 |  |  |
| B3 | 2 |  |  |
| B4 | 2 |  |  |
| B5 | 2 |  |  |
| B6 |  | 81 ± 2 | 68 ± 8 |
